Here are results for six molecules from PMC3923060, “HCV Core Residues Critical for Infectivity Are Also Involved in Core-NS5A Complex Formation” (PLoS ONE, 2014).

Experiment [1] has as its target Core-Flag-R50A/K51A/R59A/R62A (hepatitis C virus genotype 2a, strain JFH1). Briefly: co-IP; Huh7.5.1 stable cell lines expressing full-length JFH1-Luc/Neo-Core-Flag genomes (wild type or core mutants); anti-Flag M2 agarose, eluted with 3xFLAG peptide; anti-NS5A blot, quantified by IR fluorescence, three experiments.
The target in experiment [2] is 3xFlag-Core R59A (hepatitis C virus genotype 2a, strain JFH1). Briefly: co-IP; SGR-JFH1 (Huh7 subgenomic JFH1 replicon) cells transfected with 3xFlag-Core (wild type or mutants); anti-Flag M2 agarose, eluted with 3xFLAG peptide; anti-NS5A blot, quantified by IR fluorescence and normalised to precipitated core and expression, three experiments. (In general: In antiviral work, replicon cells carry a viral genome segment that copies itself.)

The target of experiment [3] is 3xFlag-Core R62A (hepatitis C virus genotype 2a, strain JFH1). Described as above.
For experiment [4], the target named is 3xFlag-Core R50A (hepatitis C virus genotype 2a, strain JFH1). The description is as above.
Experiment [5] concerns the target T1, full-length NS5A-His (hepatitis C virus genotype 2a, strain …, UniProt Q99IB8 1977-2442).
T1 construct: HCV nonstructural protein 5A (NS5A), genotype 2a strain JFH1, full-length; pET-UbCHis vector; also called recombinant NS5A-His; source: E. coli BL21(DE3)pCG1, purified as described previously [60]; not shown: His6, C-terminal, kept
T1 sequence: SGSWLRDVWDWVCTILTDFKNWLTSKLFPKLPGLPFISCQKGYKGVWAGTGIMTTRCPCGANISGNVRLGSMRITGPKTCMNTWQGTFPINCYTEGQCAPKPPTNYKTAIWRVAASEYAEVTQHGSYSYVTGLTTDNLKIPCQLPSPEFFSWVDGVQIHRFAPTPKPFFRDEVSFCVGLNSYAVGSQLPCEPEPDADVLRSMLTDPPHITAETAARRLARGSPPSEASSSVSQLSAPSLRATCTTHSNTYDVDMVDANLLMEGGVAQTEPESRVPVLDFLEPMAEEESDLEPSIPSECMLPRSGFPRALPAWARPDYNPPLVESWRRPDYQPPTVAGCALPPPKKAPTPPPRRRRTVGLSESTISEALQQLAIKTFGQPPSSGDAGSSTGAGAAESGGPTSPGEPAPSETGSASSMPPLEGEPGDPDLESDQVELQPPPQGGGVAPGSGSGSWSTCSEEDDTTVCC
Briefly: pull-down; 4 µg GST protein (bait) mixed with 10 µg NS5A protein in 100 µl binding buffer (50 mM Tris-HCl pH 7.5, 100 mM NaCl, 5 mM MgCl2, 10% glycerol, 0.5% Igepal CA-630, 1 mM DTT), 3 h at 4°C, then glutathione beads 1 h; Western blot (anti-NS5A, anti-Flag), in Figure 3 quantified by IR fluorescence. Particulars: both partners purified. On the technique in general: Immunoblotting shows a protein as a band on a membrane.

In experiment [6] the target is T1, full-length NS5A-His. Briefly: pull-down; as a4, proteins treated with 1, 5 or 10 µM BMS-790052 for 30 min at 4°C. Conditions: both partners purified.

“NS5A from JFH1-Luc/Neo-Core-Flag expressing cells (from UniProt Q99IB8 1977-2442) (natural protein)”: the percent reduction in NS5A binding against wild-type core in experiment [1] came to 85%.

For “subgenomic NS5A (from UniProt Q99IB8 1977-2442) (natural protein)”, the percent reduction in NS5A binding against wild type in experiment [2] was 65%; in experiment [3], 17%; in experiment [4], 8%.

B1: GST-Core2-23-His (domain or fragment)
chain: STNPKPQRKTKRNTNRRPEDVK
notes: HCV core protein, genotype 2a strain JFH1, residues 2-23 (basic domain 1); linker as in m1; also called BD1; BD1 (2-23); not shown: GST, N-terminal, kept; His6, C-terminal, kept
Regarding B1, the binding result with full-length NS5A-His [5] was “binds”.

B2: GST-Core101-121-His (domain or fragment)
chain: RGSRPSWGPTDPRHRSRNVGK
notes: HCV core protein, genotype 2a strain JFH1, residues 101-121 (basic domain 3); linker as in m1; also called BD3; BD3 (101-121); not shown: GST, N-terminal, kept; His6, C-terminal, kept
With B2, the binding result with full-length NS5A-His [5] is “binds”.

B3: GST-Core-BD2-His (domain or fragment)
chain: PRRGPRLGVRTTRKTSERSQPRGRRQPIPKDRRSTGK
notes: HCV core protein, genotype 2a strain JFH1, residues 38-74 (basic domain 2); linker as in m1; also called GST-Core38-74-His; GST-BD2-His; not shown: GST, N-terminal, kept; His6, C-terminal, kept
For B3, the binding result with full-length NS5A-His [5] is “binds”.

B4: GST-Core1-170-His (domain or fragment)
chain: MSTNPKPQRKTKRNTNRRPEDVKFPGGGQIVGGVYLLPRRGPRLGVRTTRKTSERSQPRGRRQPIPKDRRSTGKAWGKPGRPWPLYGNEGLGWAGWLLSPRGSRPSWGPTDPRHRSRNVGKVIDTLTCGFADLMGYIPVVGAPLSGAARAVAHGVRVLEDGVNYATGNLP
notes: HCV core protein, genotype 2a strain JFH1, residues 1-170 (domains D1 and D2); pGEX-2T; also called GST-Core-His; core (D1 and D2 domains); not shown: GST, N-terminal, kept; His6, C-terminal, kept
Turning to B4, the binding result with full-length NS5A-His [6] is listed as “binds”.
